{
  "source": "paper PMC3594540",
  "about": "(Nature structural & molecular biology, 2013)",
  "binders": {"B1": {"name": "murine Gαq (residues 7–359), biotinylated for bead binding (natural protein)", "chain": "MACCLSEEAKEARRINDEIERQLRRDKRDARRELKLLLLGTGESGKSTFIKQMRIIHGSGYSDEDKRGFTKLVYQNIFTAMQAMIRAMDTLKIPYKYEHNKAHAQLVREVDVEKVSAFENPYVDAIKSLWNDPGIQECYDRRREYQLSDSTKYYLNDLDRVADPSYLPTQQDVLRVRVPTTGIIEYPFDLQSVIFRMVDVGGQRSERRKWIHCFENVTSIMFLVALSEYDQVLVESDNENRMEESKALFRTIITYPWFQNSSVILFLNKKDLLEEKIMYSHLVDYFPEYDGPQRDAQAAREFILKMFVDLNPDSDKIIYSHFTCATDTENIRFVFAAVKDTILQLNLKEYNLV"}},
  "key": {"PLCβ3 L876A EEE": {"target": "T1, PLCβ3 L876A EEE (human, UniProt Q01970)", "T1 chain": "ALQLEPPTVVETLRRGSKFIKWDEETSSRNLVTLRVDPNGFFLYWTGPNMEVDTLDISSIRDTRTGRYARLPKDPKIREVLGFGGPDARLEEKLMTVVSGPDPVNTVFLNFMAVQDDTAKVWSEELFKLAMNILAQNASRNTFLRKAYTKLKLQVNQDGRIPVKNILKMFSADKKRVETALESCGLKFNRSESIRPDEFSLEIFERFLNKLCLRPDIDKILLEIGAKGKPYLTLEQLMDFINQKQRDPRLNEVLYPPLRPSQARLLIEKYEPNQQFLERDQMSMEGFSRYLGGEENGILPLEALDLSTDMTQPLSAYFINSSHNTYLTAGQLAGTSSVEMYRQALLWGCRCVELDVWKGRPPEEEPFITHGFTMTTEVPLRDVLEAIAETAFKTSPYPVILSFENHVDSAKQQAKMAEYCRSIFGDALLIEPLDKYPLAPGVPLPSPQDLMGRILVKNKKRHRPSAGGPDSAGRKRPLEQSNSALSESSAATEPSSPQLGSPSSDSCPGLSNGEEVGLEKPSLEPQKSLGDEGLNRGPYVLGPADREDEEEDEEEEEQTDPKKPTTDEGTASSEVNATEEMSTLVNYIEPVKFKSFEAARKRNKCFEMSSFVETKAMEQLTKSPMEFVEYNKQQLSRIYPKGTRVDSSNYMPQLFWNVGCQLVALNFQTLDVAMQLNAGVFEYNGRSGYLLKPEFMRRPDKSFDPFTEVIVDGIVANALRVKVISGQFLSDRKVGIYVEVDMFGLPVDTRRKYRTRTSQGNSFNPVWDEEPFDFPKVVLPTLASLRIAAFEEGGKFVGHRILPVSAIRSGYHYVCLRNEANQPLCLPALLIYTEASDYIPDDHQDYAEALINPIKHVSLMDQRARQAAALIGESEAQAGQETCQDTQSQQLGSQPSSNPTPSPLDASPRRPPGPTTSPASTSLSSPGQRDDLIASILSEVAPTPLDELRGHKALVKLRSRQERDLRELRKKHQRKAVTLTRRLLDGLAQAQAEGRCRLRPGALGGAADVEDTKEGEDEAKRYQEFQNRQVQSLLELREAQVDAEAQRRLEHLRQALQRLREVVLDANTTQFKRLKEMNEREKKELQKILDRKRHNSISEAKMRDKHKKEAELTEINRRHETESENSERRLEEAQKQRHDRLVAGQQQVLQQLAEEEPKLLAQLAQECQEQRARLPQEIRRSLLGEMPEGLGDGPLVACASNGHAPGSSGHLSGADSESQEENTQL", "test": "cell-based or functional assay"}, "[1]": {"target": "T2, PLCβ3 I1129E V1133E I1136E triple mutant (human, UniProt Q01970)", "T2 chain": "T1 chain with A867L", "test": "cell-based or functional assay"}},
  "note": "Where a chain is given by its changes, count along the chain named.",
  "data": [
    {"binder": "B1", "values": [
      {"measurement": "EC50 of Gαq-stimulated PIP2 hydrolysis ([3H]-IP3 release from liposomes)", "setting": "PLCβ3 L876A EEE", "result": 32, "unit": "nM"},
      {"measurement": "Max specific activity of Gαq-stimulated PIP2 hydrolysis (liposomes)", "setting": "PLCβ3 L876A EEE", "result": 3900, "unit": "nmol IP3/min/nmol PLCβ3"},
      {"measurement": "EC50 of Gαq-stimulated PIP2 hydrolysis ([3H]-IP3 release from liposomes)", "setting": "[1]", "result": 280, "unit": "nM"},
      {"measurement": "Max specific activity of Gαq-stimulated PIP2 hydrolysis (liposomes)", "setting": "[1]", "result": 1900, "unit": "nmol IP3/min/nmol PLCβ3"}
    ]}
  ]
}
